# T1: TIA-1 RRM2,3 (UniProt P31483-2 93-274)
# T1 sequence: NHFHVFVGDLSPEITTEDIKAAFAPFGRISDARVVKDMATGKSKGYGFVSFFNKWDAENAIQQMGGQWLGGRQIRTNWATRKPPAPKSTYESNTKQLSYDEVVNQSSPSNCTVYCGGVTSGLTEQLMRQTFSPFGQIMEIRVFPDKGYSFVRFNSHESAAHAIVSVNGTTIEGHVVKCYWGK
# How the values were obtained:
# TIA-1 RRM2,3 = biological target: T1, TIA-1 RRM2,3; test: fluorescence anisotropy; 12 mM arginine; FA: 10 mM HEPES pH 7.2, 50 mM NaCl, 12 mM arginine (further 1 mM component truncated in the text); temperature not stated; KD from two independent measurements.; details: protein: recombinant; tags: 6xHis removed with thrombin; label: 5'-fluorescein; single strand
# [1] = biological target: FUS-RBD (RGG1-RRM-RGG2-ZnF-RGG3) (UniProt P35637 242-526); test: as above; details: protein: recombinant; tags: N-terminal GB1-6xHis; label: 5'-fluorescein; single strand
# Sequence of FUS-RBD (RGG1-RRM-RGG2-ZnF-RGG3) (P35637 242-526): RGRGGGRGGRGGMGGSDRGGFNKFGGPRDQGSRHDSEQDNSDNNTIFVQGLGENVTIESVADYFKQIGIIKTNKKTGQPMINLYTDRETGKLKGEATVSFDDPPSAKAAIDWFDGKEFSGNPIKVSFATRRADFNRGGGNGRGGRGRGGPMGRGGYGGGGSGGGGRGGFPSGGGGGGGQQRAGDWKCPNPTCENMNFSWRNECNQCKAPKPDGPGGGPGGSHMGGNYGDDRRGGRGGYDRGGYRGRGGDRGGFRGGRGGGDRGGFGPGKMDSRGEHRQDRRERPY
binder,measurement,setting,value
TTTTTACTCC (ssDNA) [TC1],Kd,"TIA-1 RRM2,3",2 nM
same,Kd,[1],30 nM

# From PMC9329571, “Regulation of TIA-1 Condensates: Zn2+ and RGG Motifs Promote Nucleic Acid Driven LLPS and Inhibit Irreversible Aggregation”
